Key:
[1] = system: T1, eNme2-C-dABE8e (Neisseria meningitidis); test: cell_activity; settings: all N4CN PAMs, E. coli ABE-PPA
T1 sequence: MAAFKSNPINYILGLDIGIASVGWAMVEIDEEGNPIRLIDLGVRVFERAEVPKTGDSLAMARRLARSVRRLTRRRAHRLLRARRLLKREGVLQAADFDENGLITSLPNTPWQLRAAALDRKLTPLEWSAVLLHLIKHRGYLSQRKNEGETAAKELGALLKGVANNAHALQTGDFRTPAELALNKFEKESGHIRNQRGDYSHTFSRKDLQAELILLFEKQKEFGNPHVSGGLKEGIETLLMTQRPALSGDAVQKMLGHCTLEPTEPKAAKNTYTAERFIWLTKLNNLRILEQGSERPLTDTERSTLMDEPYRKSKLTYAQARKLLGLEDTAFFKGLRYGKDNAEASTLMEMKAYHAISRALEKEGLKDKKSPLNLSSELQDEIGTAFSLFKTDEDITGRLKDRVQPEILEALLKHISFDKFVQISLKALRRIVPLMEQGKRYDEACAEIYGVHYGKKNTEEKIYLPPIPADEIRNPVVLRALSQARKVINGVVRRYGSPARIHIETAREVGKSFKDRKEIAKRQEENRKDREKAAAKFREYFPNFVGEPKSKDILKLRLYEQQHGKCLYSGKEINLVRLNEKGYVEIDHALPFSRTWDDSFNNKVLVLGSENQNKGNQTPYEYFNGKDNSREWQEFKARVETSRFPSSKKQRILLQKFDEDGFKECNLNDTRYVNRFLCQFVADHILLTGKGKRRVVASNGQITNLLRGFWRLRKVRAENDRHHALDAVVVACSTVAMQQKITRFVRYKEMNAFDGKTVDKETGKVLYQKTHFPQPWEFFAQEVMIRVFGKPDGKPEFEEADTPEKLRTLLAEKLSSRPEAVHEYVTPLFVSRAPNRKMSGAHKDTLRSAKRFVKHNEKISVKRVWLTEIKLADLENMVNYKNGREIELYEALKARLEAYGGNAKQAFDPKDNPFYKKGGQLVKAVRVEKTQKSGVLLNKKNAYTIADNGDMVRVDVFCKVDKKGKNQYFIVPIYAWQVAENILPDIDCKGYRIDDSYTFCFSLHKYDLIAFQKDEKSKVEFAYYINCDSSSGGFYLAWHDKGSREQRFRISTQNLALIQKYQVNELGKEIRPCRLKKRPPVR

[2] = system: T2, E1-2-ABE8e (Neisseria meningitidis); test: cell_activity; settings: PAM N4YNC average, E. coli ABE-PPA; 14% on N4YND
T2 sequence: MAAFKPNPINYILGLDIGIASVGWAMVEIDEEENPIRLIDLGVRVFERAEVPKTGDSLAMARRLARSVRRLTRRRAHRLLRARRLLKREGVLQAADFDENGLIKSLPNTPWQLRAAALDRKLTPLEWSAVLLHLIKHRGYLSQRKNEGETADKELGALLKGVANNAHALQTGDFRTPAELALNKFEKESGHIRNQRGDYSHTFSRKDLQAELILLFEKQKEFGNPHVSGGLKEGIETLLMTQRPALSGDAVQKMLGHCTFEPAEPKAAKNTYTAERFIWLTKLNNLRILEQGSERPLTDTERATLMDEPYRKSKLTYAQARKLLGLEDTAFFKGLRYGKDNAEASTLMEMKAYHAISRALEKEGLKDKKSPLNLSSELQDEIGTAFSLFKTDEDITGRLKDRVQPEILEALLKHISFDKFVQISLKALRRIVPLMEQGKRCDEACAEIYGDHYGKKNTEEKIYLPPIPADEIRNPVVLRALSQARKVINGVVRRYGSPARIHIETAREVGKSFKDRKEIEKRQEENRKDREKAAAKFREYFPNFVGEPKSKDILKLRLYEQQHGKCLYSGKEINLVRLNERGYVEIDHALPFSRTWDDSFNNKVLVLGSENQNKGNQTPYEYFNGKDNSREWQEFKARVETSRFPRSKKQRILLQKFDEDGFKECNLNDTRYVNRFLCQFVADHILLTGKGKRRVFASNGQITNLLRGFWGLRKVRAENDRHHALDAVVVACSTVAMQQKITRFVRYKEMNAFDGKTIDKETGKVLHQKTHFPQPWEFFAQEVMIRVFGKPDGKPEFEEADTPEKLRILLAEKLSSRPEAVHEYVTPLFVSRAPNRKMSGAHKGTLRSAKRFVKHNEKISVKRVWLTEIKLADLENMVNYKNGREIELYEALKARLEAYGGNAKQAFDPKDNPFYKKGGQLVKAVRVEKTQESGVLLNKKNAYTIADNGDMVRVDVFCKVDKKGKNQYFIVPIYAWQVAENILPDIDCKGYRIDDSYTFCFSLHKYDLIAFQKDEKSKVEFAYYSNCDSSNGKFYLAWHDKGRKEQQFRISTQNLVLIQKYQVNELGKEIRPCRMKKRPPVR

AUGGCCCAGACUGAGCACGUGAGGUUGUAGCUCCCUUUCUCAUUUCGGAAACGAAAUGAGAACCGUUGCUACAAUAAGGCCGUCUGAAAAGAUGUGCCGCAACGCUCUGCCCCUUAAAGCUUCUGCUUUAAGGGGCAUCGUUUA / ATGGCCCAGACTGAGCACGTGA / TCACGTGCTCAGTCTGGGCCAT [ABE-PPA sgRNA ; ABE-PPA protospacer library target]
activity (% A-to-G conversion) [1]: > 80 | activity (% A-to-G conversion) [2]: 29
